Source: patent publication US20260224661A1 (Stanford University, published 2026)

Legend:
[1] = target: Tenm1 (as used in the affinity determinations of FIG. 2E-F) (UniProt Q9UKZ4 1-2725); test: surface binding saturation curve
[2] = target: T1, Tenm3 expressed in HEK293 cells (mouse, UniProt Q9WTS6 1-2715); test: surface-binding assay on HEK293 cells expressing Tenm3 (FIG. 4E)
T1 construct: also called teneurin-3

[3] = target: T2, Tenm1 expressed in HEK293 cells (human, UniProt Q9UKZ4 1-2725); test: surface-binding assay on HEK293 cells expressing Tenm1 (FIG. 4E)
T2 construct: also called teneurin-1

[4] = target: T3, Tenm4 expressed in HEK293 cells (mouse, UniProt Q3UHK6 1-2771); test: surface-binding assay on HEK293 cells expressing Tenm4 (FIG. 4E)
T3 construct: also called teneurin-4

[5] = target: T4, Tenm2 expressed in HEK293 cells (human, UniProt Q9NT68 1-2774); test: surface-binding assay on HEK293 cells expressing Tenm2 (FIG. 4E)
T4 construct: also called teneurin-2

Chain of Tenm1 (as used in the affinity determinations of FIG. 2E-F) (Q9UKZ4 other isoform, or with tags, fused parts or gaps): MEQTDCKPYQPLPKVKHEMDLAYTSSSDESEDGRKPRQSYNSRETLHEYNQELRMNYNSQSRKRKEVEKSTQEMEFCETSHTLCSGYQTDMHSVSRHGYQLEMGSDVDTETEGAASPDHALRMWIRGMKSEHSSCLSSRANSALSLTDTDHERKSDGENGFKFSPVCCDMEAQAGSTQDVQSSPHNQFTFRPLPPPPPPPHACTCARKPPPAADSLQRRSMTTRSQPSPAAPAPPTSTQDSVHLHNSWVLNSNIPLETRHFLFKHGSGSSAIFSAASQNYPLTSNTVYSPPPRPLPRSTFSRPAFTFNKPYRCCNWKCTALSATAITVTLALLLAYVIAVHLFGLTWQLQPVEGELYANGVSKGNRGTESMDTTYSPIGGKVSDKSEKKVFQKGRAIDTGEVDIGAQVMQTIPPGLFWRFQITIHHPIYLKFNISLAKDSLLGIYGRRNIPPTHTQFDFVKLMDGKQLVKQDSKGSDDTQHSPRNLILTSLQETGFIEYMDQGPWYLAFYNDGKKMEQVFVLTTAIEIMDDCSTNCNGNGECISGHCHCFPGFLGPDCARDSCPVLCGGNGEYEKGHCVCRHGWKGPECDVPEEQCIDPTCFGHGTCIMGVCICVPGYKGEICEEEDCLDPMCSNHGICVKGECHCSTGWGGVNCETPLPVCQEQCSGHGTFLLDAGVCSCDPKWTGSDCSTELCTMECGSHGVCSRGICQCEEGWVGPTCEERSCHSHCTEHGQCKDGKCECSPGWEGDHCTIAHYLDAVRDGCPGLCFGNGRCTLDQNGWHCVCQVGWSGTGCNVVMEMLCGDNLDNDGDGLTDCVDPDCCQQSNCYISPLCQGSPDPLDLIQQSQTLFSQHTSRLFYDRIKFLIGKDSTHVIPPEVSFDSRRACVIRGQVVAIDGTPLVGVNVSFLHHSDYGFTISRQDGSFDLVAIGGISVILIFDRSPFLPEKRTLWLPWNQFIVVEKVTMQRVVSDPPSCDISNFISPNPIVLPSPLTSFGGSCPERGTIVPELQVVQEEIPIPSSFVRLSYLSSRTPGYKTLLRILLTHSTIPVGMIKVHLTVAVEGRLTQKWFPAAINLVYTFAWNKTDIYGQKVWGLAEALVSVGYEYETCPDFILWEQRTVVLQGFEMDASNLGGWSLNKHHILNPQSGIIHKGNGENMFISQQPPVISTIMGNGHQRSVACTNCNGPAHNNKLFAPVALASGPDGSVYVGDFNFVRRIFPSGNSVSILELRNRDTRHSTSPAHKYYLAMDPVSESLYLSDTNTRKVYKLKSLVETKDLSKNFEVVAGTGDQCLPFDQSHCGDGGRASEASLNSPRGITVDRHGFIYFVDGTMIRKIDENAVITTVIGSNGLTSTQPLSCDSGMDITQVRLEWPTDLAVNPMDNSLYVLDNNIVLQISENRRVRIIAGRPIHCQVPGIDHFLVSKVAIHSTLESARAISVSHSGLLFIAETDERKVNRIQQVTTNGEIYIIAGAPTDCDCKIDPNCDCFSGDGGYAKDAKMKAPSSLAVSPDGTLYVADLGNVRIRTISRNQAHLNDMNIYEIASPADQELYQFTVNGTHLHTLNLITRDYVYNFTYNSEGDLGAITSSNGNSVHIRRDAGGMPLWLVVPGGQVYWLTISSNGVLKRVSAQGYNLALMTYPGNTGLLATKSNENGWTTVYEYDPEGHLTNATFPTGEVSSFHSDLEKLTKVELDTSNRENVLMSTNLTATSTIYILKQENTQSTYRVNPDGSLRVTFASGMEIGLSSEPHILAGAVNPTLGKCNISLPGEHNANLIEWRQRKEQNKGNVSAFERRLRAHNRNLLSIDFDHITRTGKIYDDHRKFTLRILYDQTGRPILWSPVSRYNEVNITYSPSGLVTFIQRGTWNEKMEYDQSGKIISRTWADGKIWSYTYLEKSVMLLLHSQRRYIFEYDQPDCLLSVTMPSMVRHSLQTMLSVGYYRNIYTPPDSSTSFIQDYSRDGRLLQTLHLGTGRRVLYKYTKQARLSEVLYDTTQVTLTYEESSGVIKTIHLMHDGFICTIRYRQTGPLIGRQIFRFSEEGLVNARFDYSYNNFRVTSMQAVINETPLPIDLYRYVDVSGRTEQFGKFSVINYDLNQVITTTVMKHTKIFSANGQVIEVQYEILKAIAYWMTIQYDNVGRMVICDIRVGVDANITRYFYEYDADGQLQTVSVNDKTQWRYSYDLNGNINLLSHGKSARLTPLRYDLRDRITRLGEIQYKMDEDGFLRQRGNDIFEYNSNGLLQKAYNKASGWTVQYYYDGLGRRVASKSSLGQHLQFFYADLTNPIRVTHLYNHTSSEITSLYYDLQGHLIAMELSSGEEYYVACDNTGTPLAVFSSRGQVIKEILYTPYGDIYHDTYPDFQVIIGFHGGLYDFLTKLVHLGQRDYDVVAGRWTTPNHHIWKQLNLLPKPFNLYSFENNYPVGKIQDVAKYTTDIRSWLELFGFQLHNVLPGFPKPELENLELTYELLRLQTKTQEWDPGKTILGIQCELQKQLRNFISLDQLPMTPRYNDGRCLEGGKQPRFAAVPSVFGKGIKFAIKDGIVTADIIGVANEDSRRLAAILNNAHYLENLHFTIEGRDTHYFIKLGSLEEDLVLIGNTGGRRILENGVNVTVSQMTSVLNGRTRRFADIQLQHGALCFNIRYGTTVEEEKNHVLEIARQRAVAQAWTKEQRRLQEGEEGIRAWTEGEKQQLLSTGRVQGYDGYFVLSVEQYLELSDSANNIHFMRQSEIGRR
T2 sequence (Q9UKZ4 other isoform, or with tags, fused parts or gaps): as above

Kd [1]	binding result [2]	binding result [3]	binding result [4]	binding result [5]	Binder
0.0732 µM					full-length SPARCL1 (ligand) IPTSTRFLSDHSNPTTATLVTPEDATVPIAGVEATADIENHPNDKAEKPSALNSEEETHEQSTEQDKTYSFEVDLKDEEDGDGDLSVDPTEGTLTLDLQEGTSEPQQKSLPENGDFPATVSTSYVDPNQRANITKGKESQEQPVSDSHQQPNESSKQTQDLKAEESQTQDPDIPNEEEEEEEDEEEEEEEEPEDIGAPSDNQEEGKEPLEEQPTSKWEGNREQSDDTLEESSQPTQISKTEKHQSEQGNQGQESDSEAEGEDKAAGSKEHIPHTEQQDQEGKAGLEAIGNQKDTDEKAVSTEPTDAAVVPRSHGGAGDNGGGDDSKHGAGDDYFIPSQEFLEAERMHSLSYYLKYGGGEETTTGESENRREAADNQEAKKAESSPNAEPSDEGNSREHSAGSCTNFQCKRGHICKTDPQGKPHCVCQDPETCPPAKILDQACGTDNQTYASSCHLFATKCRLEGTKKGHQLQLDYFGACKSIPACTDFEVAQFPLRMRDWLKNILMQLYEPNPKHGGYLNEKQRSKVKKIYLDEKRLLAGDHPIELLLRDFKKNYHMYVYPVHWQFNELDQHPADRILTHSELAPLRASLVPMEHCITRFFEECDPNKDKHITLKEWGHCFGIKEEDIDENLLF
	no binding	no binding	no binding	no binding	EF-hand Ca2+-binding domain of SPARCL1 (ligand, also called EF-hand domain; EC domain) ACTDFEVAQFPLRMRDWLKNILMQLYEPNPKHGGYLNEKQRSKVKKIYLDEKRLLAGDHPIELLLRDFKKNYHMYVYPVHWQFNELDQHPADRILTHSELAPLRASLVPMEHCITRFFEECDPNKDKHITLKEWGHCFGIKEEDIDENLLF
0.0882 µM					C-terminal SPARCL1-C domain of SPARCL1 (ligand) PNAEPSDEGNSREHSAGSCTNFQCKRGHICKTDPQGKPHCVCQDPETCPPAKILDQACGTDNQTYASSCHLFATKCRLEGTKKGHQLQLDYFGACKSIPACTDFEVAQFPLRMRDWLKNILMQLYEPNPKHGGYLNEKQRSKVKKIYLDEKRLLAGDHPIELLLRDFKKNYHMYVYPVHWQFNELDQHPADRILTHSELAPLRASLVPMEHCITRFFEECDPNKDKHITLKEWGHCFGIKEEDIDENLLF
